Read-outs that look alike come from different tables or passages of the source.

What all share (test): FRET or BRET
One experiment has as its target Venus-IQGAP1 (human) (UniProt P46940).
The target of experiment [1] is mCherry-actin (UniProt P60709).
In experiment [2] the target is mCherry-actin (UniProt P60709). The source holds these as a separate data set.
Experiment [3] has as its target mCherry-actin (UniProt P60709). This is another data set of the same source.

Chain of Venus-IQGAP1 (P46940 whole entry): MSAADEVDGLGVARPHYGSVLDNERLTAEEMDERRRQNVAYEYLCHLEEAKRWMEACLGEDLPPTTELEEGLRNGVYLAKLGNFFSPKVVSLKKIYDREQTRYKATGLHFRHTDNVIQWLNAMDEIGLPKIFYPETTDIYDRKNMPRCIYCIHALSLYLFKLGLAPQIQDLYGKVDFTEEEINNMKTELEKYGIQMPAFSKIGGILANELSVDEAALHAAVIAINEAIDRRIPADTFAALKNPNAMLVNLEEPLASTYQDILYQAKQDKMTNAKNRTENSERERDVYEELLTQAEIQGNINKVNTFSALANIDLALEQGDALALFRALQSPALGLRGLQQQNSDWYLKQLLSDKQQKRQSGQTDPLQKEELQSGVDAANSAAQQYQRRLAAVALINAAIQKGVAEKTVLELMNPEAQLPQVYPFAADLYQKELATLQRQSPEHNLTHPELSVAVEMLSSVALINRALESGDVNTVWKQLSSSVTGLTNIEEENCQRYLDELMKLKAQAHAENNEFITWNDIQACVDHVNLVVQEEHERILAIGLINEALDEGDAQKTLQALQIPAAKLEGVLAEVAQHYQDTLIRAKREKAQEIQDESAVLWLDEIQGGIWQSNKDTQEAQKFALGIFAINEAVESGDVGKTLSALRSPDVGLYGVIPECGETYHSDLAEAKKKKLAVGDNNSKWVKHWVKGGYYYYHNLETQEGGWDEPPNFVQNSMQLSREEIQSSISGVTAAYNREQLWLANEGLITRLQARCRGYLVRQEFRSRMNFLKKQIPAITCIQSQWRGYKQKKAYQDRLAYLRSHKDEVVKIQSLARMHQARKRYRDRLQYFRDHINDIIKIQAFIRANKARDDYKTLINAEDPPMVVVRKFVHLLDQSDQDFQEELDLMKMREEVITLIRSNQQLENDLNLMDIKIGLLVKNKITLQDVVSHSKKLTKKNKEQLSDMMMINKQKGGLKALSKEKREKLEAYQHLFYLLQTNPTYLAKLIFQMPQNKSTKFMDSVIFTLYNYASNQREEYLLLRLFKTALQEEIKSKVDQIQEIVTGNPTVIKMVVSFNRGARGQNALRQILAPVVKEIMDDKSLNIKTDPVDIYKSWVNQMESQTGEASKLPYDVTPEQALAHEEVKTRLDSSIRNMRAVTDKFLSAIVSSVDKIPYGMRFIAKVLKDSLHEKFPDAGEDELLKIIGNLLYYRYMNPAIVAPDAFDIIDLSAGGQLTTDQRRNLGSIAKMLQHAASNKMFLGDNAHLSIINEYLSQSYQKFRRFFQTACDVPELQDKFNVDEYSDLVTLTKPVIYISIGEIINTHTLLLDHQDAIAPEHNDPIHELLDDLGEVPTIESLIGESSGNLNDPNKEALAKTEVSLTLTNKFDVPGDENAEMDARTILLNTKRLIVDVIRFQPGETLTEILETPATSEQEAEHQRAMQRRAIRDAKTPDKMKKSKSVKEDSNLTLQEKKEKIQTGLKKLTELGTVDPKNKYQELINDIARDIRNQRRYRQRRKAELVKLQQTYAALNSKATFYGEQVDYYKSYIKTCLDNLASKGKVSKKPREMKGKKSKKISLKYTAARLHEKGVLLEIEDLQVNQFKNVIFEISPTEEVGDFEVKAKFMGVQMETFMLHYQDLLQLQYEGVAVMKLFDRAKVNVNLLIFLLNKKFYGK
Chain of Venus-IQGAP1 (human) (P46940 whole entry): as above
Chain of CFP-Cdc42, P60953 1-191 (natural protein; other documents disagree on this pair) (P60953 whole entry): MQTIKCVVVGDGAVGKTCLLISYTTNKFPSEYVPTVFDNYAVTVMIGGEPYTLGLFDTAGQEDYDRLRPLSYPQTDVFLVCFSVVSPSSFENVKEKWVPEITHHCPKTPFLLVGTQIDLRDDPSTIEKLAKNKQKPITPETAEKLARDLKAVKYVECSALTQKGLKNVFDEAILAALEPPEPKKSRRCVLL

For the substance “CFP-Cdc42, P60953 1-191 (natural protein; other documents disagree on this pair)”, in the experiment with Venus-IQGAP1 (human), the FRET efficiency E% at low D:A ratios (regression line) turned out to be 25% and the average FRET efficiency E% is 20%.

With “Venus-IQGAP1 (from UniProt P46940 1-1657) (natural protein)”, the average FRET efficiency E% stood at 26% with mCherry-actin [1] and 31% with mCherry-actin [3]. In addition, the FRET efficiency E% at low D:A ratios (regression line) with mCherry-actin [2] and with mCherry-actin [3] was 25 to 35% throughout.

The record behind these values is article PMC3917506.
